T1: yeast U1C (S. cerevisiae, UniProt Q05900 1-231)
T1 construct: U1C of S. cerevisiae U1 snRNP, 231 residues; NTD residues 1-48; residues 3-47 and 48-195 modelled; also called Yhc1; source: endogenous, S. cerevisiae; co-purified in U1 snRNP through the TAP tag on U1A
T1 sequence (looked up): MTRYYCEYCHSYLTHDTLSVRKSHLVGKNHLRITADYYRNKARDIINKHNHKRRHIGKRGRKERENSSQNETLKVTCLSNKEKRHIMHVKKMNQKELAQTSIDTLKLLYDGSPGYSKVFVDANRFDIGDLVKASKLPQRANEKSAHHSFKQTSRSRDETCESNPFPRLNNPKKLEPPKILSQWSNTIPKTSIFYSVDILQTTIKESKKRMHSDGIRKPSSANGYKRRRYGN

T2: yeast Prp42 (S. cerevisiae, UniProt Q03776 1-544)
T2 construct: Prp42 of S. cerevisiae, 544 residues; residues 2-540 modelled; source: endogenous, S. cerevisiae; co-purified in U1 snRNP through the TAP tag on U1A
T2 sequence (looked up): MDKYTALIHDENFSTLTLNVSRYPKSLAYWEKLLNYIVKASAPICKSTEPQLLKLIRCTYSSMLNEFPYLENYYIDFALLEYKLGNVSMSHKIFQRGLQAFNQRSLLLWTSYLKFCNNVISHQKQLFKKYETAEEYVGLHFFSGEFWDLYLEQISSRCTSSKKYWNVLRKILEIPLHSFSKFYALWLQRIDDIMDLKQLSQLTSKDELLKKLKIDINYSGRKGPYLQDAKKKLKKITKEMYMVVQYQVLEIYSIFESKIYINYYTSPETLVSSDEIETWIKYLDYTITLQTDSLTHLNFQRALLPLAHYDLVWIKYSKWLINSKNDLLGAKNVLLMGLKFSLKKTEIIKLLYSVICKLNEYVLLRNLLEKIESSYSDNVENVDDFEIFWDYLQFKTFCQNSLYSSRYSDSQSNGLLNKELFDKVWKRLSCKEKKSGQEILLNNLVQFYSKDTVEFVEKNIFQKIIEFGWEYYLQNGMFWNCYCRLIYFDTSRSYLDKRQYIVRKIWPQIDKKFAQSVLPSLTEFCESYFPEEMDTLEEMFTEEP

T3: yeast Snu56 (S. cerevisiae, UniProt Q03782 1-492)
T3 construct: Snu56 of S. cerevisiae, 492 residues; N-terminal domain 47-254 and long helix 255-303 modelled; source: endogenous, S. cerevisiae; co-purified in U1 snRNP through the TAP tag on U1A
T3 sequence (looked up): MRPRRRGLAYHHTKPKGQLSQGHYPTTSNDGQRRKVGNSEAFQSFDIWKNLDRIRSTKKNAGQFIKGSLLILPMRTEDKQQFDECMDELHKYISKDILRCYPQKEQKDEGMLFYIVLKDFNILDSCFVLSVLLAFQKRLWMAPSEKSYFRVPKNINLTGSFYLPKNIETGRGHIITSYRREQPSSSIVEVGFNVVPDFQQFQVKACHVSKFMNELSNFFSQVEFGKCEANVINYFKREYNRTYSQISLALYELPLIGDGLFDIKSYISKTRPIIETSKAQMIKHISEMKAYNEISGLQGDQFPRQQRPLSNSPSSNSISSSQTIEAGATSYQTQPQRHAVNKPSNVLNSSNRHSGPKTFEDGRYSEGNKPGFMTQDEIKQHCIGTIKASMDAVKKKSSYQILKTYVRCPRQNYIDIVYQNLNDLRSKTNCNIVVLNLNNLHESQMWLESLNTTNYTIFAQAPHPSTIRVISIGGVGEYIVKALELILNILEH

T4: yeast Prp40 (S. cerevisiae, UniProt P33203 1-583)
T4 construct: Prp40 of S. cerevisiae U1 snRNP; not modelled in the structure; source: endogenous, S. cerevisiae; co-purified in U1 snRNP through the TAP tag on U1A
T4 sequence (looked up): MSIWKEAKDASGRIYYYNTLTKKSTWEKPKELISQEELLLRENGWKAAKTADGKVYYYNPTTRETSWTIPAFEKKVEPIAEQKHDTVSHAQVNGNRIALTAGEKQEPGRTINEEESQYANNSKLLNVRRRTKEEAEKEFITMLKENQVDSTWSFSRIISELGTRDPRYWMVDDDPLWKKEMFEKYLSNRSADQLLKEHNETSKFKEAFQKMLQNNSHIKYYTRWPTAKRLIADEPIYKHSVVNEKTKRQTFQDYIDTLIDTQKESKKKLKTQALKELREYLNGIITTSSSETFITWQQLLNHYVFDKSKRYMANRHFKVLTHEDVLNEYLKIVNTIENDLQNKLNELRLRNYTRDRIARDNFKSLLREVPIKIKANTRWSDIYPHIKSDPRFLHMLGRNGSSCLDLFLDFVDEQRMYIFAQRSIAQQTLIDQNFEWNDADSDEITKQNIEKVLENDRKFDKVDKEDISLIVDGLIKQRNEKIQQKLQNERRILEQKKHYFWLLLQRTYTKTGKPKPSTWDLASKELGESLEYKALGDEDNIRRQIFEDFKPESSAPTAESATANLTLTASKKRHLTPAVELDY

B1: yeast SmD3 (natural protein, S. cerevisiae, UniProt P43321 1-101, looked up)
chain: MTMNGIPVKLLNEAQGHIVSLELTTGATYRGKLVESEDSMNVQLRDVIATEPQGAVTHMDQIFVRGSQIKFIVVPDLLKNAPLFKKNSSRPMPPIRGPKRR
notes: SmD3 of S. cerevisiae, member of the Sm ring of U1 snRNP; source: endogenous, S. cerevisiae; co-purified in U1 snRNP through the TAP tag on U1A
B2: yeast Luc7 (natural protein, S. cerevisiae, UniProt Q07508 1-261, looked up)
chain: MSTMSTPAAEQRKLVEQLMGRDFSFRHNRYSHQKRDLGLHDPKICKSYLVGECPYDLFQGTKQSLGKCPQMHLTKHKIQYEREVKQGKTFPEFEREYLAILSRFVNECNGQISVALQNLKHTAEERMKIQQVTEELDVLDVRIGLMGQEIDSLIRADEVSMGMLQSVKLQELISKRKEVAKRVRNITENVGQSAQQKLQVCEVCGAYLSRLDTDRRLADHFLGKIHLGYVKMREDYDRLMKNNRTTNASKTATTLPGRRFV
notes: Luc7 of S. cerevisiae, 261 residues; first (pseudo) Zn-finger modelled; source: endogenous, S. cerevisiae; co-purified in U1 snRNP through the TAP tag on U1A
B3: human PrpF39, Flag-tagged (second copy HA-tagged in the co-IP) (natural protein, UniProt Q86UA1 1-669, looked up)
chain: MQNSHMDEYRNSSNGSTGNSSEVVVEHPTDFSTEIMNVTEMEQSPDDSPNVNASTEETEMASAVDLPVTLTETEANFPPEYEKFWKTVENNPQDFTGWVYLLQYVEQENHLMAARKAFDRFFIHYPYCYGYWKKYADLEKRHDNIKPSDEVYRRGLQAIPLSVDLWIHYINFLKETLDPGDPETNNTIRGTFEHAVLAAGTDFRSDRLWEMYINWENEQGNLREVTAIYDRILGIPTQLYSHHFQRFKEHVQNNLPRDLLTGEQFIQLRRELASVNGHSGDDGPPGDDLPSGIEDITDPAKLITEIENMRHRIIEIHQEMFNYNEHEVSKRWTFEEGIKRPYFHVKPLEKAQLKNWKEYLEFEIENGTHERVVVLFERCVISCALYEEFWIKYAKYMENHSIEGVRHVFSRACTIHLPKKPMVHMLWAAFEEQQGNINEARNILKTFEECVLGLAMVRLRRVSLERRHGNLEEAEHLLQDAIKNAKSNNESSFYAVKLARHLFKIQKNLPKSRKVLLEAIERDKENTKLYLNLLEMEYSGDLKQNEENILNCFDKAVHGSLPIKMRITFSQRKVEFLEDFGSDVNKLLNAYDEHQTLLKEQDSLKRKAENGSEEPEEKKAHTEDTTSSSTQMIDGDLQANQAVYNYSAWYQYNYQNPWNYGQYYPPPPT
notes: human PrpF39; In the co-IP two differently tagged copies (Flag-PrpF39 and HA-PrpF39) were co-transfected; The purified protein carries the Flag tag; also called Flag-PrpF39; HA-PrpF39; source: HEK293FT, transfected (pEF-Bos-Flag-PrpF39 and/or pEF-Bos-HA-PrpF39), in lysate; also purified (anti-Flag M2 agarose, 3x Flag peptide elution, Superose 6 gel filtration)

Key:
yeast U1C = target: T1, yeast U1C; assay: cryo-EM structure; natively purified yeast U1 snRNP, 3.6 Å overall resolution; settings: both partners purified
yeast Prp42 = target: T2, yeast Prp42; assay: as above; settings: both partners purified
yeast Snu56 = target: T3, yeast Snu56; assay: as above; settings: both partners purified
yeast Prp40 = target: T4, yeast Prp40; assay: cross-linking; purified yeast U1 snRNP cross-linked with 100 uM BS3, 30 min, room temperature; trypsin digest, mass spectrometry; settings: both partners purified
[1] = target: the molecule itself; assay: negative-stain EM; purified Flag-PrpF39; reference-free 2D class averages and preliminary 3D model compared with the Prp42/Prp39 heterodimer

Row | Binder | binding result (yeast U1C) | binding result (yeast Prp42) | binding result (yeast Snu56) | binding result (yeast Prp40) | stoichiometry N [1]
1 | B1 | binds | binds |  |  | 
2 | B2 |  | binds | binds | binds | 
3 | B3 |  |  |  |  | 2

— PMC5648754, “CryoEM structure of Saccharomyces cerevisiae U1 snRNP offers insight into alternative splicing” (Nature Communications, 2017)
